These results are taken from the Human Domainome abundance scans (Beltran et al. 2025).

B1: Nuclear receptor subfamily 4 group A member 2, residues 260 to 336; numbered along this chain, P43354 (parent)
chain: EGLCAVCGDNAACQHYGVRTCEGCKGFFKRTVQKNAKYVCLANKNCPVDKRRRNRCQYCRFQKCLAVGMVKEVVRTD

± gives the uncertainty stated by the source.

In this data set the parent is B1. Nature of the data set: abundance fitness (aPCA) (normalised: wild type 0, dead -1); higher = more abundant; growth selection in yeast, the domain comes from the species named. As to conditions: Homo sapiens.
As to EGLCAVCGDNAACQHYGVRTAEGCKGFFKRTVQKNAKYVCLANKNCPVDKRRRNRCQYCRFQKCLAVGMVKEVVRTD [C21A], the abundance fitness was -0.632 ± 0.33.

Turning to EGLCAVCGDNAACQHYGVRTGEGCKGFFKRTVQKNAKYVCLANKNCPVDKRRRNRCQYCRFQKCLAVGMVKEVVRTD [C21G], the abundance fitness was -0.46 ± 0.23.

Take EGLCAVCGDNAACQHYGVRTREGCKGFFKRTVQKNAKYVCLANKNCPVDKRRRNRCQYCRFQKCLAVGMVKEVVRTD [C21R]: the abundance fitness was -0.981 ± 0.33.

For the variant EGLCAVCGDNAACQHYGVRTLEGCKGFFKRTVQKNAKYVCLANKNCPVDKRRRNRCQYCRFQKCLAVGMVKEVVRTD [C21L], the abundance fitness was -0.725 ± 0.38.

Take EGLCAVCGDNAACQHYGVRTQEGCKGFFKRTVQKNAKYVCLANKNCPVDKRRRNRCQYCRFQKCLAVGMVKEVVRTD [C21Q]: the abundance fitness is 0.041 ± 0.45.

As for EGLCAVCGDNAACQHYGVPTCEGCKGFFKRTVQKNAKYVCLANKNCPVDKRRRNRCQYCRFQKCLAVGMVKEVVRTD [R19P], the abundance fitness turned out to be 0.037 ± 0.098.

Regarding EGLCAVCGDNAACQHYGVNTCEGCKGFFKRTVQKNAKYVCLANKNCPVDKRRRNRCQYCRFQKCLAVGMVKEVVRTD [R19N], the abundance fitness amounted to 0.182 ± 0.15.

On to EGLCAVCGDNAACQHYGVSTCEGCKGFFKRTVQKNAKYVCLANKNCPVDKRRRNRCQYCRFQKCLAVGMVKEVVRTD [R19S], for which the abundance fitness came out at 0.034 ± 0.063.

For the variant EGLCAVCGDNAACQHYGVLTCEGCKGFFKRTVQKNAKYVCLANKNCPVDKRRRNRCQYCRFQKCLAVGMVKEVVRTD [R19L], the abundance fitness amounted to 0.026 ± 0.06.

Regarding EGLCAVCGDNAACQHYGVWTCEGCKGFFKRTVQKNAKYVCLANKNCPVDKRRRNRCQYCRFQKCLAVGMVKEVVRTD [R19W], the abundance fitness was -0.053 ± 0.077.

EGLCAVCGDNAACQHYGVMTCEGCKGFFKRTVQKNAKYVCLANKNCPVDKRRRNRCQYCRFQKCLAVGMVKEVVRTD [R19M]: the abundance fitness is -0.175 ± 0.089.

Turning to EGLCAVCGDNAACQHYGVHTCEGCKGFFKRTVQKNAKYVCLANKNCPVDKRRRNRCQYCRFQKCLAVGMVKEVVRTD [R19H], the abundance fitness came to 0.137 ± 0.11.

Turning to EGLCAVCGDNAACQHYGVDTCEGCKGFFKRTVQKNAKYVCLANKNCPVDKRRRNRCQYCRFQKCLAVGMVKEVVRTD [R19D], the abundance fitness is -0.202 ± 0.27.

With EGLCAVCGDNAACQHYGVYTCEGCKGFFKRTVQKNAKYVCLANKNCPVDKRRRNRCQYCRFQKCLAVGMVKEVVRTD [R19Y], the abundance fitness was -0.12 ± 0.19.

As for EGLCAVCGDNAACQHYGVETCEGCKGFFKRTVQKNAKYVCLANKNCPVDKRRRNRCQYCRFQKCLAVGMVKEVVRTD [R19E], the abundance fitness is 0.064 ± 0.073.

Consider EGLCAVCGDNAACQHYGVKTCEGCKGFFKRTVQKNAKYVCLANKNCPVDKRRRNRCQYCRFQKCLAVGMVKEVVRTD [R19K], for which the abundance fitness turned out to be 0.05 ± 0.083.

Take EGLCAVCGDNAACQHYGVQTCEGCKGFFKRTVQKNAKYVCLANKNCPVDKRRRNRCQYCRFQKCLAVGMVKEVVRTD [R19Q]: the abundance fitness was -0.053 ± 0.074.

Turning to EGLCAVCGDNAACQHYGVCTCEGCKGFFKRTVQKNAKYVCLANKNCPVDKRRRNRCQYCRFQKCLAVGMVKEVVRTD [R19C], the abundance fitness came to 0.009 ± 0.092.

For EGLCAVCGDNAACQHYGVITCEGCKGFFKRTVQKNAKYVCLANKNCPVDKRRRNRCQYCRFQKCLAVGMVKEVVRTD [R19I], the abundance fitness is -0.03 ± 0.12.

Turning to EGLCAVCGDNAACQHYGVVTCEGCKGFFKRTVQKNAKYVCLANKNCPVDKRRRNRCQYCRFQKCLAVGMVKEVVRTD [R19V], the abundance fitness came to 0.005 ± 0.062.

In the case of EGLCAVCGDNAACQHYGVATCEGCKGFFKRTVQKNAKYVCLANKNCPVDKRRRNRCQYCRFQKCLAVGMVKEVVRTD [R19A], the abundance fitness is 0.015 ± 0.056.

In the case of EGLCAVCGDNAACQHYGVFTCEGCKGFFKRTVQKNAKYVCLANKNCPVDKRRRNRCQYCRFQKCLAVGMVKEVVRTD [R19F], the abundance fitness was determined as 0.14 ± 0.13.

Regarding EGLCAVCGDNAACQHYGVRSCEGCKGFFKRTVQKNAKYVCLANKNCPVDKRRRNRCQYCRFQKCLAVGMVKEVVRTD [T20S], the abundance fitness was found to be 0.204 ± 0.26.

As for EGLCAVCGDNAACQHYGVRTCKGCKGFFKRTVQKNAKYVCLANKNCPVDKRRRNRCQYCRFQKCLAVGMVKEVVRTD [E22K], the abundance fitness was -0.067 ± 0.12.

With EGLCAVCGDNAACQHYGVRTCFGCKGFFKRTVQKNAKYVCLANKNCPVDKRRRNRCQYCRFQKCLAVGMVKEVVRTD [E22F], the abundance fitness was -0.102 ± 0.16.

As to EGLCAVCGDNAACQHYGVRTCPGCKGFFKRTVQKNAKYVCLANKNCPVDKRRRNRCQYCRFQKCLAVGMVKEVVRTD [E22P], the abundance fitness is -0.001 ± 0.094.

Regarding EGLCAVCGDNAACQHYGVRTCGGCKGFFKRTVQKNAKYVCLANKNCPVDKRRRNRCQYCRFQKCLAVGMVKEVVRTD [E22G], the abundance fitness is -0.142 ± 0.058.

Turning to EGLCAVCGDNAACQHYGVRTCLGCKGFFKRTVQKNAKYVCLANKNCPVDKRRRNRCQYCRFQKCLAVGMVKEVVRTD [E22L], the abundance fitness is -0.067 ± 0.062.

Take EGLCAVCGDNAACQHYGVRTCHGCKGFFKRTVQKNAKYVCLANKNCPVDKRRRNRCQYCRFQKCLAVGMVKEVVRTD [E22H]: the abundance fitness was -0.02 ± 0.13.

Take EGLCAVCGDNAACQHYGVRTCSGCKGFFKRTVQKNAKYVCLANKNCPVDKRRRNRCQYCRFQKCLAVGMVKEVVRTD [E22S]: the abundance fitness is -0.204 ± 0.11.

Turning to EGLCAVCGDNAACQHYGVRTCIGCKGFFKRTVQKNAKYVCLANKNCPVDKRRRNRCQYCRFQKCLAVGMVKEVVRTD [E22I], the abundance fitness is -0.393 ± 0.2.

For the variant EGLCAVCGDNAACQHYGVRTCQGCKGFFKRTVQKNAKYVCLANKNCPVDKRRRNRCQYCRFQKCLAVGMVKEVVRTD [E22Q], the abundance fitness worked out at 0.089 ± 0.19.

On to EGLCAVCGDNAACQHYGVRTCNGCKGFFKRTVQKNAKYVCLANKNCPVDKRRRNRCQYCRFQKCLAVGMVKEVVRTD [E22N], for which the abundance fitness amounted to 0.248 ± 0.25.

EGLCAVCGDNAACQHYGVRTCVGCKGFFKRTVQKNAKYVCLANKNCPVDKRRRNRCQYCRFQKCLAVGMVKEVVRTD [E22V]: the abundance fitness is -0.213 ± 0.08.

In the case of EGLCAVCGDNAACQHYGVRTCMGCKGFFKRTVQKNAKYVCLANKNCPVDKRRRNRCQYCRFQKCLAVGMVKEVVRTD [E22M], the abundance fitness came out at 0.027 ± 0.2.

In the case of EGLCAVCGDNAACQHYGVRTCDGCKGFFKRTVQKNAKYVCLANKNCPVDKRRRNRCQYCRFQKCLAVGMVKEVVRTD [E22D], the abundance fitness was found to be 0.049 ± 0.11.
